This assay deals with androgen receptor (UniProt P10275). As to the kind of experiment: cell-based or functional assay.
Sequence of UniProt P10275 (P10275 whole entry): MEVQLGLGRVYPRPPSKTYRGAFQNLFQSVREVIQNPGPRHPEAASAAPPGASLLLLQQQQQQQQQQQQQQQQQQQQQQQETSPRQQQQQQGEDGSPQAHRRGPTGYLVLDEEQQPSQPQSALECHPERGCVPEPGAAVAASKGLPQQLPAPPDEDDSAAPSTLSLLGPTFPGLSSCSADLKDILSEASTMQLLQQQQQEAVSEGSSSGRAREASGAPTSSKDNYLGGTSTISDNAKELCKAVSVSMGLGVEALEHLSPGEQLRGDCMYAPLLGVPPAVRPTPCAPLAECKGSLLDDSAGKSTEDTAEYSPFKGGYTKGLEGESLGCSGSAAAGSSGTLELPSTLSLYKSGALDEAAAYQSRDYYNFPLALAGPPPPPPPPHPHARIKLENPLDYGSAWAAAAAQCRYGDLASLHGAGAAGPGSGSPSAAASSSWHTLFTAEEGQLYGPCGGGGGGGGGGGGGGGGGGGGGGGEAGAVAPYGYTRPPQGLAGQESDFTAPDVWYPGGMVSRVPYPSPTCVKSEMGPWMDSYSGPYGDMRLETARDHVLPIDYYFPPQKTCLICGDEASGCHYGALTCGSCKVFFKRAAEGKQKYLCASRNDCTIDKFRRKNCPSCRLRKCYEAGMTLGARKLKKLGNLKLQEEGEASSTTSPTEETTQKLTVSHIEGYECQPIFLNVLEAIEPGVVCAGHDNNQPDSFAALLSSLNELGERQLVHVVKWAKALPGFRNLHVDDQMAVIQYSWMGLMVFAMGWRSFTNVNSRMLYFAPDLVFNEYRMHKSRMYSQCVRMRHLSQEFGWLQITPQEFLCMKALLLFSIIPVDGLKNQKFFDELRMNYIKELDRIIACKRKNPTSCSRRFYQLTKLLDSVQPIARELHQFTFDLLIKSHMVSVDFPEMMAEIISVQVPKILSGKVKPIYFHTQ

Substance “androgen receptor complex-associated protein (from UniProt Q58WW2 1-860)” showed a luciferase activity, AFP promoter (androgen responsive element) reporter in G2 cells, relative to the control reporter with mutated ARE of 3 to 4 fold.

For the origin of these results see patent US20050272099A1.
